# Reference: the RNAGym collection of RNA variant scans (doi:10.1021/acssynbio.7b00057)
# B1: Pistol ribozyme (parent)
# chain: GGGUCGUUGUUCCAUAAUCGCGUGGAUAUGGCACGCAAGUUUCUACCGGGCACCGUAAAUGUCCGACUGGAGCCGUUCGGGCGGCUAUAAACAGACCUCAGGCCCGAAGCGUGGCGGCACCUGCCGCCGGUGGUAAAAAAGAUCGGAAGAGCACACGUCU
# Variants of: B1
# Experiment: aptazyme ON/OFF ratio, guanine; higher = stronger switching; co-transcriptional cleavage with and without guanine
row,Variant,aptazyme ON/OFF ratio
1,U8A U10C C13A,1.05
2,U8A U10C C13U,1.19
3,U8A U10C C13G,1.05
4,U8A G9U U10A U11C C12U C13G,1.22
5,U8A G9U U10A U11C C12U C13A,1.25
6,U8A G9U U10A U11C C12U C13U,1.18
7,U8A G9U U11C C12A,1
8,U8A G9U U11C C12G,1.08
9,U8A G9U U11C C12U,1.13
10,U8A G9U U11G C13A,1.14
11,U8A G9U U11G C13U,1.24
12,U8A G9U U11G C13G,1.08
13,U8A G9U U10C C13U,1.15
14,U8A G9U U10C C13A,1.08
15,U8A G9U U10C C13G,1.04
16,U8A U10A U11A C12U C13A,1.2
17,U8A U10A U11A C12U C13G,1.09
18,U8A U10A U11A C12U C13U,1.17
19,U8A G9U U10A U11G C12A C13G,1.19
20,U8A G9U U10A U11G C12A C13A,1.01
21,U8A G9U U10A U11G C12A C13U,1.21
22,U8A U10A U11A C12A C13A,1.21
23,U8A U10A U11A C12A C13G,1.04
24,U8A U10A U11A C12A C13U,1.11

row,Variant,aptazyme ON/OFF ratio
1,U8A G9U U10C U11A C12A C13A,1.14
2,U8A G9U U10C U11A C12A C13U,1.17
3,U8A G9U U10C U11A C12A C13G,1.12
4,U8A G9U U10G U11A C13U,1.03
5,U8A G9U U10G U11A C13A,1.02
6,U8A G9U U10G U11A C13G,1.03
7,U8A G9U U10G C12U,1.13
8,U8A G9U U10G C12A,1.18
9,U8A G9U U10G C12G,1.13
10,U8A G9U U10A C13G,1.1
11,U8A G9U U10A C13A,1.26
12,U8A G9U U10A C13U,1.2
13,U8A G9U U10G U11C C12A,1.04
14,U8A G9U U10G U11C C12G,1.07
15,U8A G9U U10G U11C C12U,1.01
16,U8A G9U U10G U11A C12U C13G,1.16
17,U8A G9U U10G U11A C12U C13A,1.13
18,U8A G9U U10G U11A C12U C13U,1.12
19,U8A U10A U11G C12A C13G,1.3
20,U8A U10A U11G C12A C13A,1.13
21,U8A U10A U11G C12A C13U,1.07
22,U8A G9U U11A C13G,1.13
23,U8A G9U U11A C13U,1.24
24,U8A G9U U11A C13A,1.1

row,Variant,aptazyme ON/OFF ratio
1,U8A U10A U11G C12A,1.12
2,U8A U10A U11G C12G,1.36
3,U8A U10A U11G C12U,1.52
4,U8A U10A C12A C13G,1.08
5,U8A U10A C12A C13U,1.18
6,U8A U10A C12A C13A,1.19
7,U8A G9U U10C U11C C12G,1.03
8,U8A G9U U10C U11C C12A,1.01
9,U8A G9U U10C U11C C12U,1.04
10,U8A U10C C12A,1.31
11,U8A U10C C12U,3.12
12,U8A U10C C12G,1.3
13,U8A G9U U10A U11C C13G,1.08
14,U8A G9U U10A U11C C13U,1.02
15,U8A G9U U10A U11C C13A,1.04
16,U8A G9U U11C C13U,1.03
17,U8A G9U U11C C13G,1.02
18,U8A G9U U11C C13A,1.04
19,U8A G9U U10A U11C C12G C13G,1.12
20,U8A G9U U10A U11C C12G C13A,1.14
21,U8A G9U U10A U11C C12G C13U,1.34
22,U8A G9U U10G U11G C12G C13G,1.32
23,U8A G9U U10G U11G C12G C13U,1.34
24,U8A G9U U10G U11G C12G C13A,1.05

row,Variant,aptazyme ON/OFF ratio
1,U8A G9U U10A C12A C13A,1.22
2,U8A G9U U10A C12A C13U,1.36
3,U8A G9U U10A C12A C13G,1.12
4,U8A G9U U10G U11A,1.07
5,U8A G9U U10G U11G,1.09
6,U8A G9U U10G U11C,1.06
7,U8A U10A U11G C12U C13U,1.4
8,U8A U10A U11G C12U C13G,1.45
9,U8A U10A U11G C12U C13A,1.2
10,U8A G9U U11C C12U C13U,1.16
11,U8A G9U U11C C12U C13A,1.2
12,U8A G9U U11C C12U C13G,1.06
13,U8A G9U U10C C12G C13A,1.15
14,U8A G9U U10C C12G C13U,1.25
15,U8A G9U U10C C12G C13G,1.18
16,U8A G9U U10C U11C C12U C13U,1.04
17,U8A G9U U10C U11C C12U C13G,1.04
18,U8A G9U U10C U11C C12U C13A,1.04
19,U8A U10A C12U C13A,1.21
20,U8A U10A C12U C13G,1.13
21,U8A U10A C12U C13U,1.25
22,U8A G9U U10C U11A C13A,1.06
23,U8A G9U U10C U11A C13G,1.03
24,U8A G9U U10C U11A C13U,1.17

row,Variant,aptazyme ON/OFF ratio
1,U8A G9U U10C U11A C12U,1.18
2,U8A G9U U10C U11A C12A,1.11
3,U8A G9U U10C U11A C12G,1.06
4,U8A U10C U11A,1.15
5,U8A G9U U10C C12A C13A,1.09
6,U8A G9U U10C C12A C13U,1.05
7,U8A G9U U10C C12A C13G,1.06
8,U8A G9U U10C U11G C12A C13A,1.19
9,U8A G9U U10C U11G C12A C13G,1.25
10,U8A G9U U10C U11G C12A C13U,1.12
11,U8A U10A C12A,1.11
12,U8A U10A C12U,1.11
13,U8A U10A C12G,1.16
14,U8A G9U U10C,1.88
15,U8A G9U U10G,1.61
16,U8A G9U U10A,1.31
17,U8A G9U U11G C12U C13G,1.19
18,U8A G9U U11G C12U C13A,1.41
19,U8A G9U U11G C12U C13U,1.5
20,U8A G9U U10A U11G C12G,1.24
21,U8A G9U U10A U11G C12U,1.37
22,U8A G9U U10A U11G C12A,1.07
23,U8A G9U C12U C13G,1.25
24,U8A G9U C12U C13U,1.36

row,Variant,aptazyme ON/OFF ratio
1,U8A G9U U10C U11G C13U,1.14
2,U8A G9U U10C U11G C13G,1.05
3,U8A G9U U10C U11G C13A,1.12
4,U8A U10A U11C C12A C13G,1.06
5,U8A U10A U11C C12A C13U,1.19
6,U8A U10A U11C C12A C13A,1.08
7,U8A G9U U10C U11C C12G C13A,1.07
8,U8A G9U U10C U11C C12G C13G,1.08
9,U8A G9U U10C U11C C12G C13U,1.02
10,U8A G9U U10G U11A C12A C13G,1.16
11,U8A G9U U10G U11A C12A C13A,1.22
12,U8A G9U U10G U11A C12A C13U,1.47
13,U8A G9U U11C C12A C13A,1.14
14,U8A G9U U11C C12A C13U,1.11
15,U8A G9U U11C C12A C13G,1.07
16,U8A G9U U10G U11A C12G,1.28
17,U8A G9U U10G U11A C12A,1.21
18,U8A G9U U10G U11A C12U,1.05
19,U8A U10C U11A C12A C13G,1.1
20,U8A U10C U11A C12A C13A,1.21
21,U8A U10C U11A C12A C13U,1.3
22,U8A U10A U11A C13A,1.12
23,U8A U10A U11A C13G,1.16
24,U8A U10A U11A C13U,1.06

row,Variant,aptazyme ON/OFF ratio
1,U8A G9U U10A U11A C12G C13A,1.27
2,U8A G9U U10A U11A C12G C13G,1.32
3,U8A G9U U10A U11A C12G C13U,1.38
4,U8A G9U U11C C12G C13G,1.16
5,U8A G9U U11C C12G C13A,1.14
6,U8A G9U U11C C12G C13U,1.16
7,U8A G9U U10C U11C C13A,1
8,U8A G9U U10C U11C C13G,1.01
9,U8A G9U U10C U11C C13U,1.03
10,U8A G9U U11A C12U C13G,1.09
11,U8A G9U U11A C12U C13U,1.08
12,U8A G9U U11A C12U C13A,1.52
13,U8A G9U U11G C12U,1.51
14,U8A G9U U11G C12G,1.12
15,U8A G9U U11G C12A,1.07
16,U8A G9U U10A U11A C12U C13U,1.53
17,U8A G9U U10A U11A C12U C13G,1.36
18,U8A G9U U10A U11A C12U C13A,1.21
19,U8A G9U U10G U11C C12G C13G,1.07
20,U8A G9U U10G U11C C12G C13A,1.08
21,U8A G9U U10G U11C C12G C13U,1.12
22,U8A G9U U10G U11A C12G C13U,1.28
23,U8A G9U U10G U11A C12G C13A,1.27
